Laboratory results reported in patent US8906844B2 (SYNTONIX PHARMACEUTICALS, dated 2014).
Positions of bridges follow the written chain, without caps; N, C: chain ends. Non-standard residues stand in square brackets, D forms with d. No end group written: not given here. Pen = CC(C)(S)[C@H](N)C(=O)O; NMeA = CN[C@@H](C)C(=O)O

B1: Peptide No. 196 (peptide)
peptide: QRFC[NMeA]GHFGGLYPCNGP-NH2
modifications: disulfide 4-14; N-terminus assumed
SMILES: CC(C)C[C@@H]1NC(=O)CNC(=O)CNC(=O)[C@H](Cc2ccccc2)NC(=O)[C@H](Cc2c[nH]cn2)NC(=O)CNC(=O)[C@H](C)N(C)C(=O)[C@@H](NC(=O)[C@H](Cc2ccccc2)NC(=O)[C@H](CCCNC(=N)N)NC(=O)[C@@H](N)CCC(N)=O)CSSC[C@@H](C(=O)N[C@@H](CC(N)=O)C(=O)NCC(=O)N2CCC[C@H]2C(N)=O)NC(=O)[C@@H]2CCCN2C(=O)[C@H](Cc2ccc(O)cc2)NC1=O
B2: Peptide No. 155 (peptide)
peptide: QRF[Pen]TGHF[dF]GPYPCNGP-NH2
modifications: disulfide 4-14; N-terminus assumed
SMILES: C[C@@H](O)[C@@H]1NC(=O)[C@@H](NC(=O)[C@H](Cc2ccccc2)NC(=O)[C@H](CCCNC(=N)N)NC(=O)[C@@H](N)CCC(N)=O)C(C)(C)SSC[C@@H](C(=O)N[C@@H](CC(N)=O)C(=O)NCC(=O)N2CCC[C@H]2C(N)=O)NC(=O)[C@@H]2CCCN2C(=O)[C@H](Cc2ccc(O)cc2)NC(=O)[C@@H]2CCCN2C(=O)CNC(=O)[C@@H](Cc2ccccc2)NC(=O)[C@H](Cc2ccccc2)NC(=O)[C@H](Cc2c[nH]cn2)NC(=O)CNC1=O
B3: Peptide No. 213 (peptide)
peptide: QRF[Pen][NMeA]GHFGGLYPCNGP-NH2
modifications: disulfide 4-14; N-terminus assumed
SMILES: CC(C)C[C@@H]1NC(=O)CNC(=O)CNC(=O)[C@H](Cc2ccccc2)NC(=O)[C@H](Cc2c[nH]cn2)NC(=O)CNC(=O)[C@H](C)N(C)C(=O)[C@@H](NC(=O)[C@H](Cc2ccccc2)NC(=O)[C@H](CCCNC(=N)N)NC(=O)[C@@H](N)CCC(N)=O)C(C)(C)SSC[C@@H](C(=O)N[C@@H](CC(N)=O)C(=O)NCC(=O)N2CCC[C@H]2C(N)=O)NC(=O)[C@@H]2CCCN2C(=O)[C@H](Cc2ccc(O)cc2)NC1=O
B4: Peptide No. 239 (peptide)
peptide: RFXTGHFXXYPC
modifications: Pen3; X8 = 3(R)-amino-2-oxo-1-azepine acetic acid; NMeLeu9; disulfide; C-terminal amide
B5: Peptide No. 211 (peptide)
peptide: FVTGHFG[dP]WYPA-NH2
modifications: N-terminus assumed
SMILES: CC(C)[C@H](NC(=O)[C@@H](N)Cc1ccccc1)C(=O)N[C@H](C(=O)NCC(=O)N[C@@H](Cc1c[nH]cn1)C(=O)N[C@@H](Cc1ccccc1)C(=O)NCC(=O)N1CCC[C@@H]1C(=O)N[C@@H](Cc1c[nH]c2ccccc12)C(=O)N[C@@H](Cc1ccc(O)cc1)C(=O)N1CCC[C@H]1C(=O)N[C@@H](C)C(N)=O)[C@@H](C)O
B6: Peptide No. 246 (peptide)
peptide: RFVTGHFG[dP]WYPA-NH2
modifications: N-terminus assumed
SMILES: CC(C)[C@H](NC(=O)[C@H](Cc1ccccc1)NC(=O)[C@@H](N)CCCNC(=N)N)C(=O)N[C@H](C(=O)NCC(=O)N[C@@H](Cc1c[nH]cn1)C(=O)N[C@@H](Cc1ccccc1)C(=O)NCC(=O)N1CCC[C@@H]1C(=O)N[C@@H](Cc1c[nH]c2ccccc12)C(=O)N[C@@H](Cc1ccc(O)cc1)C(=O)N1CCC[C@H]1C(=O)N[C@@H](C)C(N)=O)[C@@H](C)O

Each binder was assayed against T1, soluble human FcRn (shFcRn) (human, UniProt P55899 24-297; P61769 21-119, biotinylated with Sulfo-NHS-LC-Biotin in the ELISA; amine-coupled to a CM5 chip in SPR) (assay: SPR, pH 6).
T1 construct: also called biotinylated shFcRn
T1 sequence (P55899 24-297 limits assumed, chain 1 of 2): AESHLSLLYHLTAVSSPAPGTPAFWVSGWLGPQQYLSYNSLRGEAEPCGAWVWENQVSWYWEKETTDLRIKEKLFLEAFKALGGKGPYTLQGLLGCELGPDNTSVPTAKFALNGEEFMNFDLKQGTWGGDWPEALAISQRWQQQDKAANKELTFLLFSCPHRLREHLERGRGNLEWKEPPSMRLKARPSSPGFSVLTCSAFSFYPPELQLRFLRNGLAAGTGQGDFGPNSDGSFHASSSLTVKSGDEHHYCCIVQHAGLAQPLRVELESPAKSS
T1 sequence (P61769 21-119 limits assumed, chain 2 of 2): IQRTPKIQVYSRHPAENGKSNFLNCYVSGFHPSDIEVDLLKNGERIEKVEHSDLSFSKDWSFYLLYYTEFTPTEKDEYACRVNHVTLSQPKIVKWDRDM
Experimental: (§1) The following steps were performed to cross-link soluble human or cynomolgus FcRn to the dextran surface of a CM5 sensor chip (Biacore AB, Uppsala, Sweden) by an amine coupling reaction involving 1-ethyl-(3-dimethylaminopropyl)-carbodiimide hydrochloride (EDC) (Biacore AB, Uppsala, Sweden) and N-hydroxysuccinimide (NHS) (Biacore AB, Uppsala, Sweden) as recommended by Biacore (BIAapplications Handbook, version AB, section 4.2, Biacore AB, Uppsala, Sweden). The FcRn protein was diluted in 50 mM sodium acetate, pH 4.5 (Biacore AB, Uppsala, Sweden) to a concentration of 10 to 30 µg/ml and used to coat one flow cell on the sensor chip. Residual sites on the FcRn flow cell were blocked with 1 M ethanolamine hydrochloride pH 8.5 (Biacore AB, Uppsala, Sweden). A control flow cell was blocked with ethanolamine for reference subtraction. For analysis of the monomeric peptides, FcRn was coated to a final density of 4000-5000 response units (RU). For analysis of the peptide dimers, FcRn was coated to a density of 2000-2500 RU. All SPR measurements were performed using a BIACORE 3000 Instrument (Biacore AB Uppsala, Sweden). For measurements done at either pH 6 or pH 7.4, experiments were performed in 50 mM phosphate, 100 mM sodium chloride, 0.01% surfactant P20 (Biacore AB, Uppsala, Sweden).
(§2) A. Representative Procedure for the Determination of Binding Constant of Monomeric Peptides Ten 2-fold dilutions of the peptide were injected over the FcRn-CM5 chip at a rate of 20 µl/min for 2 min. The peptide was dissociated from the chip for 2.5 minutes with buffer. Any remaining peptide was removed from the chip with a 30 second injection of HBS-P buffer (Biacore AB, Uppsala, Sweden) at a rate of 30 µl/min. Sensorgrams were generated and analyzed using BiaEval software version 3.1 (Biacore AB, Uppsala, Sweden). The equilibrium RU observed for each injection was plotted against concentration. The equilibrium K_D values were derived by analysis of the plots using the steady state affinity model included in the BiaEval software.
Binder QRFXTGHFGXLYPXNGP (Pen4; D-Pro10; Pen14; disulfide; C-terminal amide) [Peptide No. 295] has a Kd of 0.28 µM. B1 showed a Kd of 18 µM. QRFXTXHFGGLYPCNGP (Pen4; Sar6; disulfide; C-terminal amide) [Peptide No. 108] showed a Kd of 88 µM. QRFXTGHFXGLYPCNGP (Pen4; Sar9; disulfide; C-terminal amide) [Peptide No. 111] showed a Kd of 2 µM. B2 was tested, and the Kd was 18.3 µM. In the case of QRFXTGHFXPLYPCNGP (Pen4; D-Phe9; disulfide; C-terminal amide) [Peptide No. 203], the Kd is reported as 3.8 µM. For QRFXTGHFGGXYPCNGP (Pen4; NMeLeu11; disulfide; C-terminal amide) [Peptide No. 113], the Kd was 0.086 µM. With RFXTGHFGGXYPCNGP (Pen3; NMeLeu10; disulfide; C-terminal amide) [Peptide No. 146] the Kd was 0.059 µM. RFXTGAFGXXYPC (Pen3; Sar9; NMeLeu10; disulfide; C-terminal amide) [Peptide No. 266] showed a Kd of 9.9 µM. RFXTGHFGXLYPC (Pen3; D-Pro9; disulfide; C-terminal amide) [Peptide No. 142] gave a Kd of 0.14 µM. Work on QRFXTGHFGXLYPCNGP (Pen4; D-Pro10; disulfide; C-terminal amide) [Peptide No. 40] yielded a Kd of 0.23 µM. In the case of QRFXTGHFGXLYPCNGP (Pen4; D-His10; disulfide; C-terminal amide) [Peptide No. 42], the Kd is reported as 2 µM. QRFXTGHFXGLYPCNGP (Pen4; D-Asp9; disulfide; C-terminal amide) [Peptide No. 47] was tested, and the Kd was 0.58 µM. QRFXTGHFXGLYPCNGP (Pen4; D-His9; disulfide; C-terminal amide) [Peptide No. 50] was tested, and the Kd was 0.41 µM. QRFXTGHFXGLYPCNGP (Pen4; D-Ile9; disulfide; C-terminal amide) [Peptide No. 51] showed a Kd of 2.6 µM. QRFXTGHFXGLYPCNGP (Pen4; D-Phe9; disulfide; C-terminal amide) [Peptide No. 52] gave a Kd of 0.51 µM. QRFXTGHFXXLYPCNGP (Pen4; D-Phe9; D-Pro10; disulfide; C-terminal amide) [Peptide No. 150] gave a Kd of 0.72 µM. QRFXTGHFXXLYPCNGP (Pen4; D-Pro9; D-Pro10; disulfide; C-terminal amide) [Peptide No. 152] was tested, and the Kd was 3.3 µM. For QRFXTGHFXGXYPCNGP (Pen4; D-Phe9; NMeLeu11; disulfide; C-terminal amide) [Peptide No. 153], the Kd was 0.24 µM. With QRFXTGHFXGXYPCNGP (Pen4; D-Ala9; NMeLeu11; disulfide; C-terminal amide) [Peptide No. 154] the Kd was 0.23 µM. B3 showed a Kd of 1 µM. Work on QRFXTGHFGXWYPCNGP (Pen4; Sar10; disulfide; C-terminal amide) [Peptide No. 238] yielded a Kd of 0.068 µM. Work on B4 yielded a Kd of 0.044 µM. QRFDTGHFGXLYPKNGP (D-Ala10; lactam bridge Asp4-Lys14 side chains; C-terminal amide) [Peptide No. 105] showed a Kd of 2.1 µM. Binder QRFVTGHFGXLYPANGP (D-Pro10; unbridged; C-terminal amide) [Peptide No. 157] has a Kd of 16 µM. QRFVTGHFGXWYPINGP (D-Pro10; unbridged; C-terminal amide) [Peptide No. 190] gave a Kd of 4.2 µM. Work on B5 yielded a Kd of 8 µM. In the case of B6, the Kd is reported as 3.6 µM.

The binders below were run against T1, soluble human FcRn (shFcRn) (assay: SPR, pH 7.4).
Experimental: as §1, §2
Work on RFXTGHFGGXYPCNGP (Pen3; NMeLeu10; disulfide; C-terminal amide) [Peptide No. 146] yielded a Kd of 0.28 µM. For QRFXTGHFGXLYPCNGP (Pen4; D-His10; disulfide; C-terminal amide) [Peptide No. 42], the Kd was 20 µM. In the case of QRFXTGHFXGLYPCNGP (Pen4; D-Asp9; disulfide; C-terminal amide) [Peptide No. 47], the Kd is reported as 4.9 µM. With QRFCTGHFXGLYPCNGP (D-Ala9; disulfide; C-terminal amide) [Peptide No. 22] the Kd was 137 µM. Work on QRFCTGHFGXLYPCNGP (D-Ala10; disulfide; C-terminal amide) [Peptide No. 23] yielded a Kd of 184 µM.

These binders were tested against T1, soluble human FcRn (shFcRn) (assay: competition ELISA vs human IgG).
Experimental: The wells were coated with 100 μl/well of 1 μg/ml biotinylated-shFcRn in Buffer A. The plate was sealed and incubated at 37° C. for 2 hours. Afterwards, the plate was washed with 200 μl/well of Buffer B (Buffer B: 100 mM MES pH 6, 150 mM NaCl, 0.5% BSA IgG-free (Jackson ImmunoResearch, West Grove, Pa.), 0.05% Tween-20). […] To allow for mixing, the plate was rocked for 2 minutes, sealed and incubated at 37° C. for 2 hours. […] The plate was covered, incubated for 30 minutes at room temperature and washed 4 times with 200 μl/well of ice-cold buffer B. SureBlue TMB substrate solution (100 μl/well, KPL, Gaithersburg, Md.) was added and the plate was allowed to incubate at room temperature until color developed, which took 5 to 10 minutes. Once color developed, 100 μl/well of TMB stop solution (KPL, Gaithersburg, Md.) was added and the absorbance was measured at 450 nm.
QRFXTGHFGXLYPXNGP (Pen4; D-Pro10; Pen14; disulfide; C-terminal amide) [Peptide No. 295] was tested, and the IC50 was 1.6 µM. Binder B1 has an IC50 of 169 µM. In the case of QRFXTXHFGGLYPCNGP (Pen4; Sar6; disulfide; C-terminal amide) [Peptide No. 108], the IC50 is reported as > 125 µM. In the case of B2, the IC50 is reported as 39 µM. In the case of QRFXTGHFGGXYPCNGP (Pen4; NMeLeu11; disulfide; C-terminal amide) [Peptide No. 113], the IC50 is reported as 1.6 µM. RFXTGHFGGXYPCNGP (Pen3; NMeLeu10; disulfide; C-terminal amide) [Peptide No. 146] was tested, and the IC50 was 2.1 µM. QRFXTGHFGXLYPCNGP (Pen4; D-Pro10; disulfide; C-terminal amide) [Peptide No. 40] showed an IC50 of 1.4 µM. QRFXTGHFXGLYPCNGP (Pen4; D-His9; disulfide; C-terminal amide) [Peptide No. 50] was tested, and the IC50 was 3.6 µM. QRFXTGHFXGLYPCNGP (Pen4; D-Ile9; disulfide; C-terminal amide) [Peptide No. 51] gave an IC50 of 9.4 µM. QRFXTGHFXGLYPCNGP (Pen4; D-Phe9; disulfide; C-terminal amide) [Peptide No. 52] was tested, and the IC50 was 2.8 µM. In the case of QRFXTGHFXXLYPCNGP (Pen4; D-Phe9; D-Pro10; disulfide; C-terminal amide) [Peptide No. 150], the IC50 is reported as 5.9 µM. In the case of QRFXTGHFXXLYPCNGP (Pen4; D-Pro9; D-Pro10; disulfide; C-terminal amide) [Peptide No. 152], the IC50 is reported as 21 µM. QRFXTGHFXGXYPCNGP (Pen4; D-Phe9; NMeLeu11; disulfide; C-terminal amide) [Peptide No. 153] showed an IC50 of 1.3 µM. QRFXTGHFXGXYPCNGP (Pen4; D-Ala9; NMeLeu11; disulfide; C-terminal amide) [Peptide No. 154] was tested, and the IC50 was 3.2 µM. For B3, the IC50 was 5.5 µM. Work on QRFXTGHFGXWYPCNGP (Pen4; Sar10; disulfide; C-terminal amide) [Peptide No. 238] yielded an IC50 of 1 µM. QRFCTGHFXGLYPCNGP (D-Ala9; disulfide; C-terminal amide) [Peptide No. 22] showed an IC50 of 48 µM. For B4, the IC50 was 0.62 µM. Work on QRFVTGHFGXLYPANGP (D-Pro10; unbridged; C-terminal amide) [Peptide No. 157] yielded an IC50 of 195 µM. With QRFVTGHFGXWYPINGP (D-Pro10; unbridged; C-terminal amide) [Peptide No. 190] the IC50 was 49 µM. For B6, the IC50 was 60 µM.
